In publication PMC10946529 one finds turnover frequency (TOF) of electron transfer from CaHydA to the Mq5 cluster in H2 oxidation, assuming cluster concentration equal to the peptide concentration and turnover frequency (TOF) of electron transfer from CaHydA to the Mq5 cluster in H2 oxidation, corrected for about 40 % cluster formation relative to FdM1 data, which are given here for one molecule.

This assay deals with T1, [FeFe]-hydrogenase CaHydA from Clostridium acetobutylicum (Clostridium acetobutylicum) (UniProt Q59262).
T1 sequence: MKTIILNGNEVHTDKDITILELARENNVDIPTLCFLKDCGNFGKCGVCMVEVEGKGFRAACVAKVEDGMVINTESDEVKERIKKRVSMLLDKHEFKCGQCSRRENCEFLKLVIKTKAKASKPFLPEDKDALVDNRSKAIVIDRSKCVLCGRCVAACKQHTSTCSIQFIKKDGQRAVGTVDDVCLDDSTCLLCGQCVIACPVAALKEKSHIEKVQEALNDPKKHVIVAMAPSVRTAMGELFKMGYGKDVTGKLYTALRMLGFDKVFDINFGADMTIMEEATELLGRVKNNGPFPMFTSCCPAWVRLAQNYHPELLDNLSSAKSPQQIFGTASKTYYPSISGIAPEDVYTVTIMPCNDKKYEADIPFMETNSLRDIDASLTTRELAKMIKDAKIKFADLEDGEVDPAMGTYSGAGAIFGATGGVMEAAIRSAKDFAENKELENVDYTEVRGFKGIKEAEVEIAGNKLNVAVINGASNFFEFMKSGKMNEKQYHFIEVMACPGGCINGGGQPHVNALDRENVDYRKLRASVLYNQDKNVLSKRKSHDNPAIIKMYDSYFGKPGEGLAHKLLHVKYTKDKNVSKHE

In turn, Ac-GCGGGCGGCGGCGY-NH2 (also: [4Fe4S] cluster coordinated by the four Cys) [[4Fe4S]-peptide maquette Mq5 (Ac-…-NH2)] displayed a turnover frequency (TOF) of electron transfer from CaHydA to the Mq5 cluster in H2 oxidation, assuming cluster concentration equal to the peptide concentration of 79 s⁻¹ and a turnover frequency (TOF) of electron transfer from CaHydA to the Mq5 cluster in H2 oxidation, corrected for about 40 % cluster formation relative to FdM1 of 31 s⁻¹.
